The text below walks through data of the supplement of paper PMC10567573.

The labels stand for the following.
B1: EHMT1 (parent)
chain: EEINKNISDFGRQQLLPPFPSLHQ
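Also: lentivirally expressed fusions sorted by FACS into six bins by GFP to DsRed ratio, PSI derived from sequencing read proportions per bin multiplied by bin number.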

The variants in this data set derive from B1. Put plainly: protein stability index of a GFP-peptide fusion (GPS, HEK-293T) (PSI 1-6); higher = more stable. Conditions: c terminus: a fixed tail appended.
Take EEINKGISDFGRQQLLPPFPSLHQ [N6G]: the protein stability index stood at 2.91. For the variant EEINKIISDFGRQQLLPPFPSLHQ [N6I], the protein stability index was 2.17. The result for EEINKRISDFGRQQLLPPFPSLHQ [N6R] reads 2.1.

Turning to EEINKTISDFGRQQLLPPFPSLHQ [N6T], the protein stability index is 2.65.

Regarding EEINKLISDFGRQQLLPPFPSLHQ [N6L], the protein stability index came to 1.97. As for EEINKEISDFGRQQLLPPFPSLHQ [N6E], the protein stability index stood at 2.91.

As to EEINKMISDFGRQQLLPPFPSLHQ [N6M], the protein stability index amounted to 2.92.

As for EEINKYISDFGRQQLLPPFPSLHQ [N6Y], the protein stability index was 2.09. The result for EEINKVISDFGRQQLLPPFPSLHQ [N6V] reads 2.71; that for EEINKDISDFGRQQLLPPFPSLHQ [N6D], 3.15. Turning to EEINKAISDFGRQQLLPPFPSLHQ [N6A], the protein stability index worked out at 2.85.

Regarding EEINKHISDFGRQQLLPPFPSLHQ [N6H], the protein stability index amounted to 2.4. For EEINKWISDFGRQQLLPPFPSLHQ [N6W], the protein stability index came to 1.76. On to EEINKCISDFGRQQLLPPFPSLHQ [N6C], for which the protein stability index worked out at 2.44.

Consider EEINKFISDFGRQQLLPPFPSLHQ [N6F], for which the protein stability index stood at 1.91. The result for EEINKKISDFGRQQLLPPFPSLHQ [N6K] reads 2.38; that for EEINKPISDFGRQQLLPPFPSLHQ [N6P], 2.92; that for EEINKSISDFGRQQLLPPFPSLHQ [N6S], 3.15. The result for EEINKQISDFGRQQLLPPFPSLHQ [N6Q] reads 2.71. In the case of EEINKNISDFGNQQLLPPFPSLHQ [R12N], the protein stability index came to 3.5. Under EEINKNISDFGAQQLLPPFPSLHQ [R12A] stands 3.2; under EEINKNISDFGGQQLLPPFPSLHQ [R12G], 3.15; under EEINKNISDFGKQQLLPPFPSLHQ [R12K], 3.06. With EEINKNISDFGEQQLLPPFPSLHQ [R12E], the protein stability index was found to be 3.46. Under EEINKNISDFGCQQLLPPFPSLHQ [R12C] stands 2.79. Regarding EEINKNISDFGDQQLLPPFPSLHQ [R12D], the protein stability index worked out at 3.64.

On to EEINKNISDFGFQQLLPPFPSLHQ [R12F], for which the protein stability index was 2.23. Under EEINKNISDFGHQQLLPPFPSLHQ [R12H] stands 2.77; under EEINKNISDFGMQQLLPPFPSLHQ [R12M], 2.47. Regarding EEINKNISDFGIQQLLPPFPSLHQ [R12I], the protein stability index worked out at 2.93. With EEINKNISDFGLQQLLPPFPSLHQ [R12L], the protein stability index was 2.74.

For EEIEKNISDFGRQQLLPPFPSLHQ [N4E], the protein stability index was found to be 2.86. EEICKNISDFGRQQLLPPFPSLHQ [N4C]: the protein stability index is 2.45.

In the case of EEIQKNISDFGRQQLLPPFPSLHQ [N4Q], the protein stability index came to 2.7. As to EEISKNISDFGRQQLLPPFPSLHQ [N4S], the protein stability index worked out at 2.45. The result for EEITKNISDFGRQQLLPPFPSLHQ [N4T] reads 2.33. Under EEIFKNISDFGRQQLLPPFPSLHQ [N4F] stands 2.15.

EEIAKNISDFGRQQLLPPFPSLHQ [N4A]: the protein stability index was 2.63.

Regarding EEIWKNISDFGRQQLLPPFPSLHQ [N4W], the protein stability index is 2.15. Take EEIYKNISDFGRQQLLPPFPSLHQ [N4Y]: the protein stability index was 2.01. Under EEIVKNISDFGRQQLLPPFPSLHQ [N4V] stands 2.53; under EEIPKNISDFGRQQLLPPFPSLHQ [N4P], 2.69; under EEIDKNISDFGRQQLLPPFPSLHQ [N4D], 3.26. The result for EEIMKNISDFGRQQLLPPFPSLHQ [N4M] reads 2.52; that for EEIRKNISDFGRQQLLPPFPSLHQ [N4R], 2.73. Under EEIKKNISDFGRQQLLPPFPSLHQ [N4K] stands 2.55; under EEIIKNISDFGRQQLLPPFPSLHQ [N4I], 2.02; under EEILKNISDFGRQQLLPPFPSLHQ [N4L], 2.69. On to EEIGKNISDFGRQQLLPPFPSLHQ [N4G], for which the protein stability index came out at 2.48. Consider EEIHKNISDFGRQQLLPPFPSLHQ [N4H], for which the protein stability index stood at 2.94. The result for EYINKNISDFGRQQLLPPFPSLHQ [E2Y] reads 1.58; that for ESINKNISDFGRQQLLPPFPSLHQ [E2S], 2.35; that for EWINKNISDFGRQQLLPPFPSLHQ [E2W], 1.73. As for ETINKNISDFGRQQLLPPFPSLHQ [E2T], the protein stability index came to 2.85.

On to EVINKNISDFGRQQLLPPFPSLHQ [E2V], for which the protein stability index was 2.12. Under EEINKNISDQGRQQLLPPFPSLHQ [F10Q] stands 3.3. The result for EEINKNISDKGRQQLLPPFPSLHQ [F10K] reads 3.45. For the variant EEINKNISDNGRQQLLPPFPSLHQ [F10N], the protein stability index was determined as 3.24. Under EEINKNISDLGRQQLLPPFPSLHQ [F10L] stands 2.91; under EEINKNISDAGRQQLLPPFPSLHQ [F10A], 3.04; under EEINKNISDDGRQQLLPPFPSLHQ [F10D], 3.91. As to EEINKNISDWGRQQLLPPFPSLHQ [F10W], the protein stability index amounted to 2.59.

Take EEINKNISDPGRQQLLPPFPSLHQ [F10P]: the protein stability index stood at 3.31.

As to EEINKNISDTGRQQLLPPFPSLHQ [F10T], the protein stability index worked out at 2.86. Under EEINKNISDIGRQQLLPPFPSLHQ [F10I] stands 2.52; under EEINKNISDMGRQQLLPPFPSLHQ [F10M], 3.04. Take EEINKNISDRGRQQLLPPFPSLHQ [F10R]: the protein stability index worked out at 2.88.

In the case of EEINKNISDHGRQQLLPPFPSLHQ [F10H], the protein stability index was found to be 2.99.

As for EEINKNISDVGRQQLLPPFPSLHQ [F10V], the protein stability index amounted to 3.04.

Regarding EEINKNISDSGRQQLLPPFPSLHQ [F10S], the protein stability index was 3.4. As to EEINKNISDCGRQQLLPPFPSLHQ [F10C], the protein stability index came out at 2.6.

Turning to EEINKNISDEGRQQLLPPFPSLHQ [F10E], the protein stability index came to 3.37. Under EEINKNISDYGRQQLLPPFPSLHQ [F10Y] stands 3.11.

In the case of EEINKNISDGGRQQLLPPFPSLHQ [F10G], the protein stability index was 3.39. In the case of EEGNKNISDFGRQQLLPPFPSLHQ [I3G], the protein stability index amounted to 3.01. EEENKNISDFGRQQLLPPFPSLHQ [I3E]: the protein stability index is 3.78.

As for EENNKNISDFGRQQLLPPFPSLHQ [I3N], the protein stability index turned out to be 3.31. On to EEKNKNISDFGRQQLLPPFPSLHQ [I3K], for which the protein stability index was found to be 3.02.

Take EETNKNISDFGRQQLLPPFPSLHQ [I3T]: the protein stability index was 3.11.

Consider EELNKNISDFGRQQLLPPFPSLHQ [I3L], for which the protein stability index turned out to be 2.95. The result for EEMNKNISDFGRQQLLPPFPSLHQ [I3M] reads 2.74; that for EEANKNISDFGRQQLLPPFPSLHQ [I3A], 3.1.

For EEFNKNISDFGRQQLLPPFPSLHQ [I3F], the protein stability index worked out at 2.91. The result for EERNKNISDFGRQQLLPPFPSLHQ [I3R] reads 2.69; that for EESNKNISDFGRQQLLPPFPSLHQ [I3S], 3.13. The result for EEHNKNISDFGRQQLLPPFPSLHQ [I3H] reads 2.71; that for EEWNKNISDFGRQQLLPPFPSLHQ [I3W], 2.39; that for EEYNKNISDFGRQQLLPPFPSLHQ [I3Y], 2.7. Regarding EEDNKNISDFGRQQLLPPFPSLHQ [I3D], the protein stability index was 3.77. For EEPNKNISDFGRQQLLPPFPSLHQ [I3P], the protein stability index is 2.68. The result for EEVNKNISDFGRQQLLPPFPSLHQ [I3V] reads 2.9. EEQNKNISDFGRQQLLPPFPSLHQ [I3Q]: the protein stability index amounted to 2.69. Regarding EECNKNISDFGRQQLLPPFPSLHQ [I3C], the protein stability index was determined as 2.76. In the case of EEINKNISHFGRQQLLPPFPSLHQ [D9H], the protein stability index is 2.41.
